Measurements: the Immune Epitope Database (IEDB)

Columns and labels:
Experiment in all cases: IEDB peptide-MHC binding, purified MHC/competitive/radioactivity; filed as Kd, often an IC50 or EC50 that approximates it; ≥ and ≤ were set here for values at or beyond the usual limits of such assays
Settings in all cases: source organism: Lake Victoria marburgvirus - Angola2005
[1] = target: HLA-A*26:01
[2] = target: HLA-B*07:02
[3] = target: HLA-A*68:02
[4] = target: HLA-A*30:01
[5] = target: HLA-A*68:01
[6] = target: HLA-A*24:02
[7] = target: HLA-A*32:01
[8] = target: HLA-B*15:01
[9] = target: HLA-A*30:02
[10] = target: HLA-B*08:01
[11] = target: HLA-A*02:03
[12] = target: HLA-A*02:06
[13] = target: HLA-A*23:01
[14] = target: HLA-B*44:02
[15] = target: HLA-B*40:01

EVASFKQAL
Kd [1]: 86 nM
Kd [2]: 250 nM
Kd [3]: 2.7 nM

TVLEFILQK
Kd [4]: 365 nM
Kd [5]: 2.2 nM

HYSPLILAL
Kd [6]: 64 nM

KVKNEVASF
Kd [7]: 2.9 nM
Kd [8]: 5.6 nM
Kd [9]: 158 nM

APFARVLNL
Kd [2]: 0.21 nM
Kd [10]: 67 nM

GLYPQLSAI
Kd [11]: 1.4 nM
Kd [12]: 6.9 nM

LIVKTVLEF
Kd [8]: 0.8 nM
Kd [13]: 109 nM

GEYAPFARV
Kd [14]: 214 nM
Kd [15]: 107 nM
